In series [1] the target is HELB D506G (Homo sapiens, UniProt Q8NG08 1-1087, D506G). The series is described as follows: fluorescence anisotropy; 10 mM Mg(OAc)2, no nucleotide; 25 mM HEPES pH 7.5, 10 mM KOAc, 10 mM Mg(OAc)2, 0.1 mM EDTA, 2 mM beta-mercaptoethanol, 0.1 mg/ml BSA, 1 nM DNA, 30 min, room temperature. The note with it: protein: recombinant; tags: none (His-SUMO cleaved by Ulp1); label: 3'-6-carboxyfluorescein; single strand. (In general: Polarisation of emitted light reports the rotation of a fluorescent probe.)

For series [2], the target named is HELB WT (Homo sapiens, UniProt Q8NG08 1-1087). Described as above. Particulars: protein: recombinant; tags: none (His-SUMO cleaved by Ulp1); label: 3'-6-carboxyfluorescein; single strand.

These results are taken from publication PMC12147029, “Rare SNP in the HELB gene interferes with RPA interaction and cellular function of HELB”.

Chain of HELB D506G (Q8NG08 whole entry D506G): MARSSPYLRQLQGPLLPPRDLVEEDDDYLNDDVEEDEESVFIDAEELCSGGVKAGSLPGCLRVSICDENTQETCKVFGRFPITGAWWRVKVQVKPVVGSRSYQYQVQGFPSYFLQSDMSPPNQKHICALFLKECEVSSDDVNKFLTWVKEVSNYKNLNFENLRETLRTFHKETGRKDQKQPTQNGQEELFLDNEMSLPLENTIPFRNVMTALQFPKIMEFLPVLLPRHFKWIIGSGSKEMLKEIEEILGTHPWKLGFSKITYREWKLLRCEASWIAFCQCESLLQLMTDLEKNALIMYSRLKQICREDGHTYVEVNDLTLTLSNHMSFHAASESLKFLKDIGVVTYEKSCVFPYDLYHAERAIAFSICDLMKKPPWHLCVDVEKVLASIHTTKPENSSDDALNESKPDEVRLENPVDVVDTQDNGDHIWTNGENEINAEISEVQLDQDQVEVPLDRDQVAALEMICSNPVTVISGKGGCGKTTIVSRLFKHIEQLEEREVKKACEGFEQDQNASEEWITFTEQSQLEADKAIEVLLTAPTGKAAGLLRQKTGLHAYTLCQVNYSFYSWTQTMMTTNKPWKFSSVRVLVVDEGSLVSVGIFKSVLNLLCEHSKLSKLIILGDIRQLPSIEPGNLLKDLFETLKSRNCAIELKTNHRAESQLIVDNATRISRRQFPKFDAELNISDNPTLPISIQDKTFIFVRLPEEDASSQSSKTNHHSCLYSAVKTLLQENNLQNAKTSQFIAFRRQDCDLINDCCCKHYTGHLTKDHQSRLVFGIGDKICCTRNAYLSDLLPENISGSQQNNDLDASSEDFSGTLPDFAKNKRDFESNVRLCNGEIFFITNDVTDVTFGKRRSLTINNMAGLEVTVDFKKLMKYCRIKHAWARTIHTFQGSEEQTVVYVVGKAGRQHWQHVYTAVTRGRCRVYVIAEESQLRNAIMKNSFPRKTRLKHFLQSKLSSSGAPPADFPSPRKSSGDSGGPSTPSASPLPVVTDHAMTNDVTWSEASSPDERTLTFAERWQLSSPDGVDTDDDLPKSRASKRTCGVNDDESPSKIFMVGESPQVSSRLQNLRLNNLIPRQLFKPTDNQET
Chain of HELB WT (Q8NG08 whole entry): as the sequence (Q8NG08 whole entry D506G) above, with G506D counted along it

B1: 3'-FAM-T16 (ssDNA)
DNA: TTTTTTTTTTTTTTTT
Take B1: the Kd in series [1] was found to be 2.2 ± 0.4 nM; in series [2] it was 3.4 ± 0.2 nM.

A word on the Kd: it is the concentration at which binding is half-saturated.
